# Experimental data from patent publication US20230074436A1 (DENALI THERAPEUTICS, published 2023).
# No end group written: not given here. *: point of attachment. Biotin = O=C1N[C@H]2[C@H](CS[C@H]2CCCCC(=O)*)N1
# T1: asyn_113-127_125A (human)
# T1 construct: substitution is already in the entry; also called pep15
# T1 peptide: Biotin-LEDMPVDPDNEAAEM
# T2: asyn_113-127_121A (human)
# T2 construct: substitution is already in the entry; also called pep10
# T2 peptide: Biotin-LEDMPVDPANEAYEM
# T3: asyn_113-127_126A (human)
# T3 construct: substitution is already in the entry; also called pep16
# T3 peptide: Biotin-LEDMPVDPDNEAYAM
# T4: asyn_113-127_120A (human)
# T4 construct: substitution is already in the entry; also called pep9
# T4 peptide: Biotin-LEDMPVDADNEAYEM
# T5: asyn_113-127_116A (human)
# T5 construct: substitution is already in the entry; also called pep5
# T5 peptide: Biotin-LEDAPVDPDNEAYEM
# T6: asyn_113-127_119A (human)
# T6 construct: substitution is already in the entry; also called pep8
# T6 peptide: Biotin-LEDMPVAPDNEAYEM
# T7: asyn_113-127_122A (human)
# T7 construct: substitution is already in the entry; also called pep11
# T7 peptide: Biotin-LEDMPVDPDAEAYEM
# T8: asyn_113-127_118A (human)
# T8 construct: substitution is already in the entry; also called pep7
# T8 peptide: Biotin-LEDMPADPDNEAYEM
# T9: asyn_113-127_114A (human)
# T9 construct: substitution is already in the entry; also called pep3
# T9 peptide: Biotin-LADMPVDPDNEAYEM
# T10: asyn_113-127_113A (human)
# T10 construct: substitution is already in the entry; also called pep2
# T10 peptide: Biotin-AEDMPVDPDNEAYEM
# T11: asyn_113-127_115A (human)
# T11 construct: substitution is already in the entry; also called pep4
# T11 peptide: Biotin-LEAMPVDPDNEAYEM
# T12: asyn_113-127_124P (human)
# T12 construct: substitution is already in the entry; also called pep14
# T12 peptide: Biotin-LEDMPVDPDNEPYEM
# T13: asyn_113-127 (human)
# T13 construct: also called pep1
# T13 peptide: Biotin-LEDMPVDPDNEAYEM
# T14: asyn_113-127_123A (human)
# T14 construct: substitution is already in the entry; also called pep12
# T14 peptide: Biotin-LEDMPVDPDNAAYEM
# T15: asyn_113-127_127A (human)
# T15 construct: substitution is already in the entry; also called pep17
# T15 peptide: Biotin-LEDMPVDPDNEAYEA
# T16: asyn_113-127_124G (human)
# T16 construct: substitution is already in the entry; also called pep13
# T16 peptide: Biotin-LEDMPVDPDNEGYEM
# T17: asyn_113-127_117A (human)
# T17 construct: substitution is already in the entry; also called pep6
# T17 peptide: Biotin-LEDMAVDPDNEAYEM
# Tests used:
# asyn_113-127_125A [1] = molecular target: T1, asyn_113-127_125A; assay: Ala-scan peptide ELISA, row E, run 2
# Protocol: (§1) 96-well Nunc plates were coated with 50 μL per well of 1 μg/mL streptavidin (from Jackson Immuno Research Laboratory) in PBS at 4° C. overnight. The plates were washed three times with PBST, and blocked with PBS containing 3% BSA at room temperature for 1 hour. The N-terminal biotinylated peptides were dissolved in Milli Q water to a concentration of 2 mg/mL, then further diluted to a concentration of 2 μg/mL with PBS. 50 μl of the diluted peptide was applied to the streptavidin-coated plates and incubated at 4° C. overnight. 2 μg/mL of biotinylated human alpha-synuclein was used as the positive control. The plates were washed three times with PBST before use. Purified antibody was diluted by serial dilution methods, from 20 μg/mL to 1 ng/mL, and 50 μL of the antibody solution was added to the peptide-coated wells. The plates were incubated for 1 hour at room temperature, then washed three times with PBST. Secondary detection antibody (goat anti-rat HRP (obtained from Southern Biotech)) was added with 1:5,000 dilutions and incubated for 1 hour at room temperature, then washed three times with PBST. Plates were developed with 50 μL/well of TMB substrate (Thermo Fisher) and quenched with 50 μL/well of 1 N sulfuric acid. The signal was quantified on a BioTek® plate reader at A450. A parallel repeat was performed for each peptide in a separate plate.
# asyn_113-127_121A [2] = molecular target: T2, asyn_113-127_121A; assay: Ala-scan peptide ELISA, row E, run 2
# Protocol: as §1
# asyn_113-127_126A [3] = molecular target: T3, asyn_113-127_126A; assay: Ala-scan peptide ELISA, row E, run 2
# Protocol: as §1
# [4] = molecular target: T18, biotinylated human alpha-synuclein (human, UniProt P37840 1-140); assay: Ala-scan peptide ELISA, row E, run 2
# Protocol: as §1
# asyn_113-127_120A [5] = molecular target: T4, asyn_113-127_120A; assay: Ala-scan peptide ELISA, row E, run 2
# Protocol: as §1
# asyn_113-127_116A [6] = molecular target: T5, asyn_113-127_116A; assay: Ala-scan peptide ELISA, row E, run 2
# Protocol: as §1
# asyn_113-127_119A [7] = molecular target: T6, asyn_113-127_119A; assay: Ala-scan peptide ELISA, row E, run 2
# Protocol: as §1
# asyn_113-127_122A [8] = molecular target: T7, asyn_113-127_122A; assay: Ala-scan peptide ELISA, row E, run 2
# Protocol: as §1
# asyn_113-127_118A [9] = molecular target: T8, asyn_113-127_118A; assay: Ala-scan peptide ELISA, row E, run 2
# Protocol: as §1
# asyn_113-127_114A = molecular target: T9, asyn_113-127_114A; assay: Ala-scan peptide ELISA, row E, run 2
# Protocol: as §1
# asyn_113-127_113A [10] = molecular target: T10, asyn_113-127_113A; assay: Ala-scan peptide ELISA, row E, run 2
# Protocol: as §1
# asyn_113-127_115A [11] = molecular target: T11, asyn_113-127_115A; assay: Ala-scan peptide ELISA, row E, run 2
# Protocol: as §1
# asyn_113-127_124P [12] = molecular target: T12, asyn_113-127_124P; assay: Ala-scan peptide ELISA, row E, run 2
# Protocol: as §1
# asyn_113-127 [13] = molecular target: T13, asyn_113-127; assay: Ala-scan peptide ELISA, row E, run 2
# Protocol: as §1
# asyn_113-127_123A [14] = molecular target: T14, asyn_113-127_123A; assay: Ala-scan peptide ELISA, row E, run 2
# Protocol: as §1
# asyn_113-127_127A [15] = molecular target: T15, asyn_113-127_127A; assay: Ala-scan peptide ELISA, row E, run 2
# Protocol: as §1
# asyn_113-127_124G [16] = molecular target: T16, asyn_113-127_124G; assay: Ala-scan peptide ELISA, row E, run 2
# Protocol: as §1
# asyn_113-127_117A [17] = molecular target: T17, asyn_113-127_117A; assay: Ala-scan peptide ELISA, row E, run 2
# Protocol: as §1
# [18] = molecular target: human alpha-synuclein monomer (human, UniProt P37840 1-140); assay: ELISA, coated human alpha-synuclein
# asyn_113-127_125A [19] = molecular target: T1, asyn_113-127_125A; assay: Ala-scan peptide ELISA, row F, run 2
# Protocol: as §1
# asyn_113-127_121A [20] = molecular target: T2, asyn_113-127_121A; assay: Ala-scan peptide ELISA, row F, run 2
# Protocol: as §1
# asyn_113-127_126A [21] = molecular target: T3, asyn_113-127_126A; assay: Ala-scan peptide ELISA, row F, run 2
# Protocol: as §1
# [22] = molecular target: T18, biotinylated human alpha-synuclein; assay: Ala-scan peptide ELISA, row F, run 2
# Protocol: as §1
# asyn_113-127_120A [23] = molecular target: T4, asyn_113-127_120A; assay: Ala-scan peptide ELISA, row F, run 2
# Protocol: as §1
# asyn_113-127_116A [24] = molecular target: T5, asyn_113-127_116A; assay: Ala-scan peptide ELISA, row F, run 2
# Protocol: as §1
# asyn_113-127_119A [25] = molecular target: T6, asyn_113-127_119A; assay: Ala-scan peptide ELISA, row F, run 2
# Protocol: as §1
# asyn_113-127_122A [26] = molecular target: T7, asyn_113-127_122A; assay: Ala-scan peptide ELISA, row F, run 2
# Protocol: as §1
# asyn_113-127_118A [27] = molecular target: T8, asyn_113-127_118A; assay: Ala-scan peptide ELISA, row F, run 2
# Protocol: as §1
# asyn_113-127_113A [28] = molecular target: T10, asyn_113-127_113A; assay: Ala-scan peptide ELISA, row F, run 2
# Protocol: as §1
# asyn_113-127_115A [29] = molecular target: T11, asyn_113-127_115A; assay: Ala-scan peptide ELISA, row F, run 2
# Protocol: as §1
# asyn_113-127_124P [30] = molecular target: T12, asyn_113-127_124P; assay: Ala-scan peptide ELISA, row F, run 2
# Protocol: as §1
# asyn_113-127 [31] = molecular target: T13, asyn_113-127; assay: Ala-scan peptide ELISA, row F, run 2
# Protocol: as §1
# asyn_113-127_123A [32] = molecular target: T14, asyn_113-127_123A; assay: Ala-scan peptide ELISA, row F, run 2
# Protocol: as §1
# asyn_113-127_127A [33] = molecular target: T15, asyn_113-127_127A; assay: Ala-scan peptide ELISA, row F, run 2
# Protocol: as §1
# asyn_113-127_124G [34] = molecular target: T16, asyn_113-127_124G; assay: Ala-scan peptide ELISA, row F, run 2
# Protocol: as §1
# asyn_113-127_117A [35] = molecular target: T17, asyn_113-127_117A; assay: Ala-scan peptide ELISA, row F, run 2
# Protocol: as §1
binder,measurement,setting,value
"20H4 (antibody, rat IgG2b, V domains shown, also called clone 20H4; rat 20H4) VH: AVQLVESGGGLVQPKESLKISCAASGFTFSNAAMYWVRQAPGKGLELLARIRTKPNNYATYHADSVKGRFTISRDDSQSMVYLHMGNLKTEDTAMYYCTADMATGDYWGPGVMVTVSS VL: DIQMTQSPPVLSVSVGDRVTLSCKASQNINKNLDWYQQKHGEAPKPLIYSTNNLQTGVPSRFSGSGSGTDYTLTISSLQPEDVATYYCYQYKSAWTFGGGTKLELR",A450,asyn_113-127_125A [1],0.049 OD
same,A450,asyn_113-127_121A [2],0.223 OD
same,A450,asyn_113-127_126A [3],0.272 OD
same,A450,[4],0.531 OD
same,A450,asyn_113-127_120A [5],0.15 OD
same,A450,asyn_113-127_116A [6],0.247 OD
same,A450,asyn_113-127_119A [7],0.045 OD
same,A450,asyn_113-127_122A [8],0.05 OD
same,A450,asyn_113-127_118A [9],0.256 OD
same,A450,asyn_113-127_114A,0.243 OD
same,A450,asyn_113-127_113A [10],0.237 OD
same,A450,asyn_113-127_115A [11],0.145 OD
same,A450,asyn_113-127_124P [12],0.047 OD
same,A450,asyn_113-127 [13],0.242 OD
same,A450,asyn_113-127_123A [14],0.259 OD
same,A450,asyn_113-127_127A [15],0.279 OD
same,A450,asyn_113-127_124G [16],0.215 OD
same,A450,asyn_113-127_117A [17],0.267 OD
same,antibody concentration at which ELISA is positive,[18],< 40 ng/mL
same,A450,asyn_113-127_125A [19],0.051 OD
same,A450,asyn_113-127_121A [20],0.143 OD
same,A450,asyn_113-127_126A [21],0.169 OD
same,A450,[22],0.284 OD
same,A450,asyn_113-127_120A [23],0.111 OD
same,A450,asyn_113-127_116A [24],0.165 OD
same,A450,asyn_113-127_119A [25],0.045 OD
same,A450,asyn_113-127_122A [26],0.049 OD
same,A450,asyn_113-127_118A [27],0.172 OD
same,A450,asyn_113-127_113A [28],0.159 OD
same,A450,asyn_113-127_115A [29],0.075 OD
same,A450,asyn_113-127_124P [30],0.047 OD
same,A450,asyn_113-127 [31],0.148 OD
same,A450,asyn_113-127_123A [32],0.151 OD
same,A450,asyn_113-127_127A [33],0.162 OD
same,A450,asyn_113-127_124G [34],0.133 OD
same,A450,asyn_113-127_117A [35],0.163 OD
